Test results: patent publication US20220257704A1, “COMBINATION OF CHEMOTHERAPY WITH RECOMBINANT S. ROLFSII LECTIN” (Unichem Laboratories Ltd, priority 2018, published 2022)
Where “and” joins values, the source holds several entries; their conditions need not be identical. Equal entries are not always repeated.

Legend:
Assay in all cases: MTT cytotoxicity assay, 48 h, alone and in combination (IC50 and Combination Index)
Format in all cases: cell-based
T24 cell line = test system: T24 cell line
Protocol: (§1) The cell were kept in contact with the recombinant lectin of SEQ ID NO: 1 and the chemotherapy agent for 48 h and the cytotoxic effect (percentage cytotoxicity) was measured. The cytotoxic effect was determined by well-known colorimetric MTT assay (Mossman, T. 1983 Rapid colorimetric assay for cellular growth and survival: application to proliferation and cytotoxicity assays Journal of Immunological Methods, volume 65, pages 55-63) for assessing cell metabolic activity.
(§2) Based on percentage cytotoxicity data, IC50 values were determined using the software GraphPad Prism version 4.01.
(§3) Combination Index (CI) values were determined for each drug concentration combination. The CI values were calculated based on the IC50 values using the formula as given in below.
(§4) A study was performed to determine the effect of the concentration of the recombinant lectin represented by SEQ ID NO: 1 on the IC50 of Cisplatin for cytotoxicity in T24 cells. Conversely the effect of the concentration of Cisplatin on the IC50 of the recombinant lectin represented by SEQ ID NO: 1.
Similarly another study was performed for Gemcitabine in combination with the recombinant lectin of SEQ ID NO: 1.
This was performed using the same techniques as in Example 1-1.
In a further study, T24 cells were treated with Cisplatin (1 μM-500 μM) in combination with SEQ ID NO: 1(2.5 μg/mL-80 μg/mL) for 48 h. Similarly another set of cells were treated with Gemcitabine (1 μM-300 μM) in combination with SEQ ID NO: 1 (2.5 μg/mL-80 μg/mL). Combination Index values were determined for each drug combination and resultant antagonistic, additive or synergistic effect was determined, as described in Example 1-2.

PANC-1 cell line = test system: PANC-1 cell line
Protocol: The cytotoxic effect on each combination was determined by MTT assay.
as §3

MDA-MB-231 cell line = test system: MDA-MB-231 cell line
Protocol: as §1, §2, §3
as §4, with “Paclitaxel” for “Cisplatin”, “MDA-MB-231” for “T24”
Similarly another study was performed for Carboplatin in combination with the recombinant lectin of SEQ ID NO: 1.
In a further study, MDA-MB-231 cells were treated with Paclitaxel (0.001 nM-10 nM) in combination with SEQ ID NO: 1(2.5 μg/mL-80 μg/mL) for 48 h. Similarly another set of cells were treated with Carboplatin (10 μM-1000 μM) in combination with SEQ ID NO: 1 (2.5 μg/mL-80 μg/mL).

B1: SEQ ID NO: 1: recombinant lectin protein, variant of the S. rolfsii lectin amino acid sequence (reported as Rec-2 in WO 2010/095143) (protein)
chain: TYKITVRVYQTNPDAFFHPVEKTVWKYANGGTWTITDDQHVLTMGGSGTSGTLRFHADNGESFTATFGVHNYKRWCDIVTNLAADETGMVINQQYYSQKNREEARERQLSNYQVKNAKGRNFQIVYTEAEGNDLHANLIIG
With B1 the “IC50 of SEQ ID NO: 1” value (T24 cell line; Cisplatin 0 μM) was 11.470 µg/mL, the “IC50 of SEQ ID NO: 1” value (T24 cell line; Cisplatin 1 μM) was 11.460 µg/mL and the “IC50 of SEQ ID NO: 1” value (T24 cell line; Cisplatin 10 μM) was 2.375 µg/mL. For the same molecule, the “IC50 of SEQ ID NO: 1” value (T24 cell line; Cisplatin 25 μM) was 1.062 µg/mL, the “IC50 of SEQ ID NO: 1” value (T24 cell line; Cisplatin 50 μM) was 1.081 µg/mL and the “IC50 of SEQ ID NO: 1” value (T24 cell line; Cisplatin 100 μM) was 0.944 µg/mL. For the same molecule, the “IC50 of SEQ ID NO: 1” value (T24 cell line; Cisplatin 500 μM) was 0.716 µg/mL, the “IC50 of SEQ ID NO: 1” value (T24 cell line; Gemcitabine 0 μM) was 10.350 µg/mL and the “IC50 of SEQ ID NO: 1” value (T24 cell line; Gemcitabine 1 μM) was 2.242 µg/mL. For the same molecule, the “IC50 of SEQ ID NO: 1” value (T24 cell line; Gemcitabine 10 μM) was 0.892 µg/mL, the “IC50 of SEQ ID NO: 1” value (T24 cell line; Gemcitabine 50 μM) was 0.626 µg/mL and the “IC50 of SEQ ID NO: 1” value (T24 cell line; Gemcitabine 100 μM) was 0.155 µg/mL. The “IC50 of SEQ ID NO: 1” value (T24 cell line; Gemcitabine 200 μM) was 0.149 µg/mL, the “IC50 of SEQ ID NO: 1” value (T24 cell line; Gemcitabine 300 μM) was 0.029 µg/mL and the “Conc. of SEQ ID NO: 1 showing synergistic effect” value (“Conc. of SEQ ID NO” for short) (T24 cell line; in combination with Cisplatin, paired with Cisplatin conc. of the same table row) was 5 to 80 µg/mL. The “Conc. of SEQ ID NO” value (T24 cell line; in combination with Gemcitabine, paired with Gemcitabine conc. of the same table row) was 2.5 to 80 µg/mL, the “IC50 of SEQ ID NO: 1” value (PANC-1 cell line; 5-FU 0 μM) was 24.630 µg/mL and the “IC50 of SEQ ID NO: 1” value (PANC-1 cell line; 5-FU 0.1 μM) was 686.900 µg/mL. The “IC50 of SEQ ID NO: 1” value (PANC-1 cell line; 5-FU 1 μM) was 22.490 µg/mL, the “IC50 of SEQ ID NO: 1” value (PANC-1 cell line; 5-FU 10 μM) was 6.842 µg/mL and the “IC50 of SEQ ID NO: 1” value (PANC-1 cell line; 5-FU 50 μM) was 1.690 µg/mL. The “IC50 of SEQ ID NO: 1” value (PANC-1 cell line; 5-FU 100 μM) was 1.070 µg/mL, the “IC50 of SEQ ID NO: 1” value (PANC-1 cell line; 5-FU […] μM) was 0.098 µg/mL and the “IC50 of SEQ ID NO: 1” value (PANC-1 cell line; Gemcitabine 0 μM) was 25.060 µg/mL. For the same molecule, the “IC50 of SEQ ID NO: 1” value (PANC-1 cell line; Gemcitabine 0.01 μM) was 55.490 µg/mL, the “IC50 of SEQ ID NO: 1” value (PANC-1 cell line; Gemcitabine 0.1 μM) was 19.450 µg/mL and the “IC50 of SEQ ID NO: 1” value (PANC-1 cell line; Gemcitabine 1 μM) was 14.130 µg/mL. The “IC50 of SEQ ID NO: 1” value (PANC-1 cell line; Gemcitabine 5 μM) was 12.230 µg/mL, the “IC50 of SEQ ID NO: 1” value (PANC-1 cell line; Gemcitabine 25 μM) was 2.044 µg/mL and the “IC50 of SEQ ID NO: 1” value (PANC-1 cell line; Gemcitabine 50 μM) was 0.917 µg/mL. The “Conc. of SEQ ID NO” value (PANC-1 cell line; in combination with 5-FU, paired with 5-FU conc. of the same table row) was 5 µg/mL and 10 to 80 µg/mL, the “IC50 of SEQ ID NO: 1” value (MDA-MB-231 cell line; Carboplatin 0 μM) was 14.310 µg/mL and the “IC50 of SEQ ID NO: 1” value (MDA-MB-231 cell line; Carboplatin 10 μM) was 7.188 µg/mL. The “IC50 of SEQ ID NO: 1” value (MDA-MB-231 cell line; Carboplatin 50 μM) was 3.584 µg/mL, the “IC50 of SEQ ID NO: 1” value (MDA-MB-231 cell line; Carboplatin 100 μM) was 4.290 µg/mL and the “IC50 of SEQ ID NO: 1” value (MDA-MB-231 cell line; Carboplatin 200 μM) was 2.073 µg/mL. For the same molecule, the “IC50 of SEQ ID NO: 1” value (MDA-MB-231 cell line; Carboplatin 500 μM) was 0.523 µg/mL, the “IC50 of SEQ ID NO: 1” value (MDA-MB-231 cell line; Carboplatin 1000 μM) was 0.044 µg/mL and the “IC50 of SEQ ID NO: 1” value (MDA-MB-231 cell line; Paclitaxel 0 nM) was 19.800 µg/mL. The “IC50 of SEQ ID NO: 1” value (MDA-MB-231 cell line; Paclitaxel 0.001 nM) was 25.370 µg/mL, the “IC50 of SEQ ID NO: 1” value (MDA-MB-231 cell line; Paclitaxel 0.01 nM) was 21.220 µg/mL and the “IC50 of SEQ ID NO: 1” value (MDA-MB-231 cell line; Paclitaxel 0.1 nM) was 13.700 µg/mL. For the same molecule, the “IC50 of SEQ ID NO: 1” value (MDA-MB-231 cell line; Paclitaxel 1 nM) was 8.720 µg/mL, the “IC50 of SEQ ID NO: 1” value (MDA-MB-231 cell line; Paclitaxel 5 nM) was 5.775 µg/mL and the “IC50 of SEQ ID NO: 1” value (MDA-MB-231 cell line; Paclitaxel 10 nM) was 2.248 µg/mL. For the same molecule, the “Conc. of SEQ ID NO” value (MDA-MB-231 cell line; in combination with Carboplatin, paired with Carboplatin conc. of the same table row) was 5 to 80 µg/mL and 2.5 µg/mL.
